From PMC1762375

Tests used:
Assay in all cases: two-hybrid; yeast strains L40 or PJ69-4A; β-galactosidase quantitative liquid assays, fold activation with respect to the empty vector, at least four independent protein extracts
[1] = target: Cno NH, LexA bait fusion (Drosophila)
[2] = target: Cno-MP, LexA bait fusion (Drosophila) (UniProt Q24279)
[3] = target: DSH-FLN, LexA bait fusion (Drosophila) (UniProt P51140)
Chain of UniProt P51140 (P51140 whole entry, the tested form may be a part): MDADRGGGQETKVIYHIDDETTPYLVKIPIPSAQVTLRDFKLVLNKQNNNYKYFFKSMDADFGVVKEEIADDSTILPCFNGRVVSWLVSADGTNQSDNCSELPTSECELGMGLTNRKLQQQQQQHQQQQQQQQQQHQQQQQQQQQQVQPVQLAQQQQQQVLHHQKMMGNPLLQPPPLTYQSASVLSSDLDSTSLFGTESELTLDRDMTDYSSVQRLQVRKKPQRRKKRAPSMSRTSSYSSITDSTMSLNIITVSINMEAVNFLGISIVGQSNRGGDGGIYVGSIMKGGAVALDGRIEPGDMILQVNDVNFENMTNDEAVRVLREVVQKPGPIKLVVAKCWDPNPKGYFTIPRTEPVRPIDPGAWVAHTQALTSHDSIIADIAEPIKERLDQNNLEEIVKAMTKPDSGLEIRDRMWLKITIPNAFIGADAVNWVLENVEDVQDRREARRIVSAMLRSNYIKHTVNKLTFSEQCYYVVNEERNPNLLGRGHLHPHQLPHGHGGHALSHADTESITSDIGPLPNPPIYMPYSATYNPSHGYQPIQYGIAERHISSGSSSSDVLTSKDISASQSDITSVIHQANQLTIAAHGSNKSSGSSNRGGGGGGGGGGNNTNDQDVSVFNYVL

Chain of UniProt Q24279 (Q24279 entry or part of it): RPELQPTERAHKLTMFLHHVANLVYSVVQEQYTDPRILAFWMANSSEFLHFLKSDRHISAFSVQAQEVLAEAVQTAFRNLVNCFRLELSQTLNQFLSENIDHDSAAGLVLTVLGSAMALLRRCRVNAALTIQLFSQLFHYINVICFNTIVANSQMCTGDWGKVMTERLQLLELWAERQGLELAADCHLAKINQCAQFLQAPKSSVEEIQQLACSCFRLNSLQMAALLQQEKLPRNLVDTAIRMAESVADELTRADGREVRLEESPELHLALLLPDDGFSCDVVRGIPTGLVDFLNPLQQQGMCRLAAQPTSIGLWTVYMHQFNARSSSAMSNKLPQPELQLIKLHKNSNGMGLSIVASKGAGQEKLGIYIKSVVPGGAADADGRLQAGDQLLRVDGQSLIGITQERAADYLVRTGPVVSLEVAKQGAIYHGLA

| fold activation (β-galactosidase, against the empty vector) (fold activation) [1] | fold activation (β-galactosidase, against the empty vector) (fold activation) [2] | fold activation (β-galactosidase, against the empty vector) (fold activation) [3] | Substance |
| --- | --- | --- | --- |
| 40 | 40 | – | Notch-ICN1, prey fusion (domain or fragment) |
| 20 | 20 | 3 | Notch-ICN2, prey fusion (domain or fragment) |
